Test results from US20100129369A1 (Eli Lilly, published 2010).

Biological target: T1, Rat c-Met-Flis-Fc ECD (rat)
T1 construct: also called Rat cMet-ECD-Fc-Flis; rat c-Met ECD
Test: SPR (Biacore), antibody captured
Procedure: A Biacore® 2000 instrument is used to measure the binding kinetics of c-Met antibodies to human, cynomolgus monkey, and rat c-Met ECDs. Measurements are performed at 25° C. Samples are dissolved in HBS-EP buffer (150 mM sodium chloride, 3 mM EDTA, 0.005% (w/v) surfactant P-20, and 10 mM N-2-hydroxyethylpiperazine-N′-2-ethanesulfonic acid (HEPES) at pH 7.4; #BR-1001-88).
Binding is evaluated using multiple cycles. Each cycle is performed at a flow rate of 50 μL/min., and consists of the following steps: injection of about 10 μL of a c-Met antibody at 10 μg/mL aiming at a capture of 40-100 RUs, injection of 250 μL of human, cynomolgus, or rat c-Met-Flis-Fc ECD (starting at 100 nM and using two-fold serial dilutions for each cycle) followed by 20 min. for dissociation, and regeneration using about 30 μL of 10 mM glycine hydrochloride, pH 1.5. Association and dissociation rates for each cycle are evaluated using a “1:1 (Langmuir) binding” model in the BIAevaluation software, version 4.1.

T1 sequence (chain, as listed by the source limits assumed): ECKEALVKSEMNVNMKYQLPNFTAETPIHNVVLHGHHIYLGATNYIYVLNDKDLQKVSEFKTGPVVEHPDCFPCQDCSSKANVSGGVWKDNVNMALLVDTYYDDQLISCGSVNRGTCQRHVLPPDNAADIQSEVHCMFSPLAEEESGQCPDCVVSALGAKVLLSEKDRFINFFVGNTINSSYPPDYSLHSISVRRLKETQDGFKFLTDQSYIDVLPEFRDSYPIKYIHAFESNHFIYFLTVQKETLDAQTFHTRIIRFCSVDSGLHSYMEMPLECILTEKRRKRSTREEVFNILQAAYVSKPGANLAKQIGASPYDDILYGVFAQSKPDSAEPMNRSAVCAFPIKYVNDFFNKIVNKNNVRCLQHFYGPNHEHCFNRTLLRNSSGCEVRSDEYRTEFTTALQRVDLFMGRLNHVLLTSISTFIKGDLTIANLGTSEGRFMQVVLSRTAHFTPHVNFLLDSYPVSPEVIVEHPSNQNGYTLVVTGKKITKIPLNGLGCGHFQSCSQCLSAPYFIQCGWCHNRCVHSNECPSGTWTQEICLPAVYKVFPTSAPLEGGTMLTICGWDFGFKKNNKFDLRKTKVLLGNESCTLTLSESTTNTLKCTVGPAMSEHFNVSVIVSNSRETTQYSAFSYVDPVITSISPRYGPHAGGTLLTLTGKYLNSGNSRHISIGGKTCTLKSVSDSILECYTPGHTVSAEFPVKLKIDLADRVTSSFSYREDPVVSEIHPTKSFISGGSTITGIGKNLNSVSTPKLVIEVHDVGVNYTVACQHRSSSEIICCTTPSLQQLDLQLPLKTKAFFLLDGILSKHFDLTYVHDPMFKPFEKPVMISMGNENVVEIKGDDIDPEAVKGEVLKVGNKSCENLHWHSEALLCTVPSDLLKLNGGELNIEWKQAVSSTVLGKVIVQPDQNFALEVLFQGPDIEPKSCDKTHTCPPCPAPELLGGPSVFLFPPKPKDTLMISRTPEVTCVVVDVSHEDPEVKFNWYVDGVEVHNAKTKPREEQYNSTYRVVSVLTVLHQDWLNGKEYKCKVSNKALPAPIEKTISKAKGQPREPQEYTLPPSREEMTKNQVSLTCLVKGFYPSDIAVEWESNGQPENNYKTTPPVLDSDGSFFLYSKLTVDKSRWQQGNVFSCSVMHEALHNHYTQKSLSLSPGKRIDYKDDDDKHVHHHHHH

B1: C8-6 (antibody, human IgG2, kappa, V domains shown)
VH: QVQLVQSGAEVKKPGASVKVSCKASGYTFTDYYMHWVRQAPGQGLEWMGRVNPNRGGTTYNQKFEGRVTMTTDTSTSTAYMELRSLRSDDTAVYYCARTNWLDYWGQGTTVTVSS
VL: DIQMTQSPSSLSASVGDRVTITCSVSSSVSSIYLHWYQQKPGKAPKLLIYSTSNLASGVPSRFSGSGSGTDFTLTISSLQPEDFATYYCIQYSGYPLTFGGGTKVEIKR
notes: Called IgG4, kappa; also called Mab C8-6
B1: no binding.
